Data on 5 molecules can be found in US20250353906A1 (FLAGSHIP PIONEERING INNOVATIONS VII, published 2025).

Assay [1] has as its target T1, recombinant His-tagged human IL-10Ra (Creative Biomart) (human, UniProt Q13651 22-235).
T1 construct: His tag; also called IL-10 receptor alpha
T1 sequence (looked up): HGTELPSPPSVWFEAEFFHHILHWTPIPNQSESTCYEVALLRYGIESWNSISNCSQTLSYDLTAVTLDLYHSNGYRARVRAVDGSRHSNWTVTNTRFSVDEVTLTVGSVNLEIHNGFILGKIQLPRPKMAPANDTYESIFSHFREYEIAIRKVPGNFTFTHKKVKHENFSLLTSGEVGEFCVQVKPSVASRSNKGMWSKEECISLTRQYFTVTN
Description: ELISA on coated His-tagged human IL-10Ra, serial dilution from 30 µg/mL. How it is done: To test the binding of the IL-10/anti-DSG1 ANDbodies to IL-10 receptor alpha (IL-10Ra) by ELISA, recombinant His-tagged human IL-10Ra (Creative Biomart) was coated on NUNC-IMMUNO™ MAXISORP™ ELISA plates at 1 μg/mL concentration overnight. The next day, coated antigen was removed and the wells were blocked with 1% IgG-free BSA followed by incubation with 11 three-fold serially diluted anti-IL-10/anti-DSG1 ANDbodies (as provided above) with a starting concentration of 30 μg/mL. Bound antibody was detected with peroxidase-conjugated anti-human IgG antibodies with TMB and acid stop reagents.
(ELISA stands for enzyme-linked immunosorbent assay.)

The target in assay [2] is T2, recombinant His-tagged murine RAGE protein (ab276858 from Abcam) (mouse, UniProt Q62151 23-340, limits assumed).
T2 construct: His tag; also called murine RAGE antigen
Description: BLI, ANDbody on anti-human IgG Fc biosensors, murine RAGE at 150 nM then murine Notch2 NRR at 150 nM. How it is done:
To test simultaneous dual antigen binding of the Notch2/RAGE ANDbodies by BLI, PRO051, PRO052 and PRO053, along with monovalent parental antibody controls were immobilized on anti-human IgG Fc biosensors and dipped into the recombinant His-tagged murine RAGE protein at 150 nM, followed by a second association step into wells containing recombinant murine Notch2 NRR at 150 nM to measure dual antigen binding. The dissociation rate was then measured by dipping the biosensors into buffer.

Assay [3] deals with T3, DSG1 stably expressed on HEK-BLUE IL-10 cells (HEKBLUE IL-10/DSG1) (human, UniProt Q02413 50-1049).
T3 sequence (looked up): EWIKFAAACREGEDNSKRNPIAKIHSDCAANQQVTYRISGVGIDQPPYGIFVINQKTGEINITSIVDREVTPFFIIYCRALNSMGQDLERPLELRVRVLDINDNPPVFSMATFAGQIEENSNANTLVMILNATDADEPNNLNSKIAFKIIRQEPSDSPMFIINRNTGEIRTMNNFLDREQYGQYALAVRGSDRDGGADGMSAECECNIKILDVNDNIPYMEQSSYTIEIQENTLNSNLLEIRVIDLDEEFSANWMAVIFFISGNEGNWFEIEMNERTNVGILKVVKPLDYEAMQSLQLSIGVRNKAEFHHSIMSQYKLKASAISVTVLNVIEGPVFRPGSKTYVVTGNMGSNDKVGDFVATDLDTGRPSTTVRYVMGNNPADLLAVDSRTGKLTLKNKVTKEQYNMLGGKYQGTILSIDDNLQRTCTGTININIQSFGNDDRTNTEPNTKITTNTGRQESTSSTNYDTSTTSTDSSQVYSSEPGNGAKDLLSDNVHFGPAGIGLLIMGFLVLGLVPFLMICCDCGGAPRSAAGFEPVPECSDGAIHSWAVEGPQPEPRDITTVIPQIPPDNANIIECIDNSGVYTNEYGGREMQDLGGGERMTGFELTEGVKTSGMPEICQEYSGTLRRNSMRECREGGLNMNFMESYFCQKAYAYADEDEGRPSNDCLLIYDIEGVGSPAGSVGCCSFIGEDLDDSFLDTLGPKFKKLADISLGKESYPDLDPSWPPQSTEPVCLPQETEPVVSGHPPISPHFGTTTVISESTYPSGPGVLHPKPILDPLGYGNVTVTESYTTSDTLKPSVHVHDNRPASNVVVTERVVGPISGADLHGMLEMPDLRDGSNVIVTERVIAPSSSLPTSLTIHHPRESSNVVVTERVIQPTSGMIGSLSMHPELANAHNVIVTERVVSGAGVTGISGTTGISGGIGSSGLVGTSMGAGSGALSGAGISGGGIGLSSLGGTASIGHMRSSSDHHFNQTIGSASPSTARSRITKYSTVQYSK
Description: cell-based or functional assay.

T2 sequence (Q62151 23-340 limits assumed): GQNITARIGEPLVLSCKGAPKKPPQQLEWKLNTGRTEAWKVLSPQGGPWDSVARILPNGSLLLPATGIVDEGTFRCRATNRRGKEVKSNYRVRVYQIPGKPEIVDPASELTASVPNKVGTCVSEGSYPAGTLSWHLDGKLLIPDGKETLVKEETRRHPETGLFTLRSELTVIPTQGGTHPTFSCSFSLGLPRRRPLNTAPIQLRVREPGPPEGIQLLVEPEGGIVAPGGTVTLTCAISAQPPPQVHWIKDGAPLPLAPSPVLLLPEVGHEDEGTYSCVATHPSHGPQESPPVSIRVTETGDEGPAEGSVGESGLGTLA

B1: IL-10 Fc (Creative Biomart IL10-326H) (Fc fusion, human, UniProt P22301 19-178, looked up)
chain: SPGQGTQSENSCTHFPGNLPNMLRDLRDAFSRVKTFFQMKDQLDNLLLKESLLEDFKGYLGCQALSEMIQFYLEEVMPQAENQDPDIKAHVNSLGENLKTLRLRLRRCHRFLPCENKSKAVEQVKNAFNKLQEKGIYKAMSEFDIFINYIEAYMTMKIRN
notes: Bought reagent; also called positive control IL-10 Fc; hIL-10 Fc fusion; not shown: human Fc domain
For B1, the binding result in assay [1] was “binds”.

B2: PRO052 (bispecific antibody)
heavy 1: not shown
light 1: DIQMTQSPSSLSASVGDRVTITCRASQSNRRFLAWYQQKPGKAPKLLIYGASSRASGVPSRFSGSGSGTDFTLTISSLQPEDFATYYCQQYYISPLTFGQGTKVEIKRTVAAPSVFIFPPSDEQLKSGTASVVCLLNNFYPREAKVQWKVDNALQSGNSQESVTEQDSKDSTYSLSSTLTLSKADYEKHKVYACEVTHQGLSSPVTKSFNRGEC
heavy 2: not shown
light 2: DIQMTQSPSSLSASVGDRVTITCRASQDVGIYVNWFQQKPGKAPRRLIYRATNLADGVPSRFSGSRSGTDFTLTISSLQPEDFATYYCLEFDEHPLTFGGGTKVEIKRTVAAPSVFIFPPSDEQLKSGTASVVCLLNNFYPREAKVQWKVDNALQSGNSQESVTEQDSKDSTYSLSSTLTLSKADYEKHKVYACEVTHQGLSSPVTKSFNRGEC
notes: Made by controlled Fab arm exchange from PRO035 (K409R) and PRO002 (F405L); also called Notch2/RAGE ANDbody PRO052; copies: 1 + 1 + 1 + 1
As for B2, in assay [2], the binding result is reported as “binds”.

B3: PRO051 (bispecific antibody)
heavy 1: not shown
light 1: not shown
heavy 2: not shown
light 2: DIQMTQSPSSLSASVGDRVTITCRASQDVGIYVNWFQQKPGKAPRRLIYRATNLADGVPSRFSGSRSGTDFTLTISSLQPEDFATYYCLEFDEHPLTFGGGTKVEIKRTVAAPSVFIFPPSDEQLKSGTASVVCLLNNFYPREAKVQWKVDNALQSGNSQESVTEQDSKDSTYSLSSTLTLSKADYEKHKVYACEVTHQGLSSPVTKSFNRGEC
notes: Made by controlled Fab arm exchange from PRO034 (K409R) and PRO002 (F405L); Signal peptides left out as for the parents; also called Notch2/RAGE ANDbody PRO051; RAGE-targeting ANDbody; copies: 1 + 1 + 1 + 1
For the molecule B3, the binding result in assay [2] is “binds”.

B4: PRO053 (bispecific antibody)
heavy 1: not shown
light 1: DIQMTQSPSSLSASVGDRVTITCRASQSVRSFLAWYQQKPGKAPKLLIYRASIRASGVPSRFSGSGSGTDFTLTISSLQPEDFATYYCQQYYISPWTFGQGTKVEIKRTVAAPSVFIFPPSDEQLKSGTASVVCLLNNFYPREAKVQWKVDNALQSGNSQESVTEQDSKDSTYSLSSTLTLSKADYEKHKVYACEVTHQGLSSPVTKSFNRGEC
heavy 2: not shown
light 2: DIQMTQSPSSLSASVGDRVTITCRASQDVGIYVNWFQQKPGKAPRRLIYRATNLADGVPSRFSGSRSGTDFTLTISSLQPEDFATYYCLEFDEHPLTFGGGTKVEIKRTVAAPSVFIFPPSDEQLKSGTASVVCLLNNFYPREAKVQWKVDNALQSGNSQESVTEQDSKDSTYSLSSTLTLSKADYEKHKVYACEVTHQGLSSPVTKSFNRGEC
notes: Made by controlled Fab arm exchange from PRO036 (K409R) and PRO002 (F405L); also called Notch2/RAGE ANDbody PRO053; copies: 1 + 1 + 1 + 1
With B4, the binding result in assay [2] is given as “binds”.

B5: PRO058 (other)
heavy: EVQLVESGGGLVQPGRSLRLSCAASGFTFDDYAMHWVRQAPGKGLEWVSGISWNSGSIDYADSVKGRFTISRDNAKNSLYLQMNSLRVEDTALYYCAKDGSRVFGVGGGFDFWGQGTMVTVSSASTKGPSVFPLAPSSKSTSGGTAALGCLVKDYFPEPVTVSWNSGALTSGVHTFPAVLQSSGLYSLSSVVTVPSSSLGTQTYICNVNHKPSNTKVDKKVEPKSCDKTHTCPPCPAPEAAGGPSVFLFPPKPKDTLMISRTPEVTCVVVDVSHEDPEVKFNWYVDGVEVHNAKTKPREEQYNSTYRVVSVLTVLHQDWLNGKEYKCKVSNKALGAPIEKTISKAKGQPREPQVYTLPPSRDELTKNQVKLTCLVKGFYPSDIAVEWESNGQPENNYKTTPPVLDSDGSFFLYSSLTVDKSRWQQGNVFSCSVMHEALHNHYTQKSLSLSPG
light: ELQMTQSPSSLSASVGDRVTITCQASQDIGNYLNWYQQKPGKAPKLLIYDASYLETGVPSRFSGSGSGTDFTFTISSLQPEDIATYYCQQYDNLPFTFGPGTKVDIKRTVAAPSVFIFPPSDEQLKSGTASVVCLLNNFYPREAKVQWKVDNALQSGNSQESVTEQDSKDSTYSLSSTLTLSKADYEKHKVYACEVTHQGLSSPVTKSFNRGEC
chain: SPGQGTQSENSCTHFPGNLPNMLRDLRDAFSRVKTFFQMKDQLDNLLLKESLLEDFKGYLGCQALSEMIQFYLEEVMPQAENQDPDIKAHVNSLGENLKTLRLRLRRCHRFLPCENGGGSGGKSKAVEQVKNAFNKLQEKGIYKAMSEFDIFINYIEAYMTMKIRNGGGGSGGGGSDKTHTCPPCPAPEAAGGPSVFLFPPKPKDTLMISRTPEVTCVVVDVSHEDPEVKFNWYVDGVEVHNAKTKPREEQYNSTYRVVSVLTVLHQDWLNGKEYKCKVSNKALGAPIEKTISKAKGQPREPQVYTLPPSRDELTKNQVSLTCLVSGFYPSDIAVEWESNGQPENNYKTTPPVLDSDGSFKLYSKLTVDKSRWQQGNVFSCSVMHEALHNRFTQKSLSLSPG
For the molecule B5, the “increase in potency of IL-10 signaling (SEAP, HEK-BLUE IL-10 cells) when DSG1 was expressed on the target cells” value in assay [3] is approximately 15 fold.
